Experimental data published in publication PMC11629141 (2024).
Numbering of substitutions follows the chain as printed. Numbers in names are those of the source. One block for each binder: values may come before it.

How the values were obtained:
[1] = target: T1, S2B‐W104A‐6G11 post MMP‐9 digestion (scFv cleaved off, not removed) (human | chicken); test: BLI; MMP-9 cleaved
Target sequence in this assay (heavy, as listed by the source, chain 2 of 2): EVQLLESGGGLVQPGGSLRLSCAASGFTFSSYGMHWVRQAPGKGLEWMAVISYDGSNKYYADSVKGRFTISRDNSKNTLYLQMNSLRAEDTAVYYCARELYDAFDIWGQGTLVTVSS
Target sequence in this assay (light, as listed by the source, chain 4 of 2): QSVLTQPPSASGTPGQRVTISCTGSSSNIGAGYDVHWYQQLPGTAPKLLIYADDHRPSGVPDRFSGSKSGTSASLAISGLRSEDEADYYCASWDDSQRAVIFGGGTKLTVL

[2] = target: T2, S2B‐Y52A‐6G11 post MMP‐9 digestion (scFv cleaved off, not removed) (human | chicken); test: BLI; MMP-9 cleaved
Target sequence in this assay (heavy, as listed by the source, chain 2 of 2): as the sequence (heavy, as listed by the source, chain 2 of 2) above
Target sequence in this assay (light, as listed by the source, chain 4 of 2): as the sequence (light, as listed by the source, chain 4 of 2) above

[3] = target: T3, S2B‐R101A‐6G11 post MMP‐9 digestion (scFv cleaved off, not removed) (human | chicken); test: BLI; MMP-9 cleaved
Target sequence in this assay (heavy, as listed by the source, chain 2 of 2): as the sequence (heavy, as listed by the source, chain 2 of 2) above
Target sequence in this assay (light, as listed by the source, chain 4 of 2): as the sequence (light, as listed by the source, chain 4 of 2) above

[4] = target: T1, S2B‐W104A‐6G11 post MMP‐9 digestion …; test: BLI
[5] = target: T3, S2B‐R101A‐6G11 post MMP‐9 digestion …; test: BLI
[6] = target: T2, S2B‐Y52A‐6G11 post MMP‐9 digestion …; test: BLI
[7] = target: T4, 6G11 (BI‐1206), full‐length antibody containing the PGLALA Fc mutations (human); test: BLI
[8] = target: T4, 6G11 (BI‐1206), full‐length antibody …; test: ELISA
[9] = target: T4, 6G11 (BI‐1206), full‐length antibody …; test: ELISA; first of two printed values (3.3/28.7)

T4 sequence (VH, as listed by the source, chain 1 of 2): as the sequence (heavy, as listed by the source, chain 2 of 2) above
T4 sequence (VL, as listed by the source, chain 2 of 2): as the sequence (light, as listed by the source, chain 4 of 2) above

Kd [1]: 10.3 nM | Kd [2]: 10.1 nM | Kd [3]: 10.7 nM | Kd [4]: 10.3 nM | Kd [5]: 10.7 nM | Kd [6]: 10.1 nM
B1: His‐tagged human FcγRIIB extracellular domain protein (domain or fragment)
chain: TPAAPPKAVLKLEPQWINVLQEDSVTLTCRGTHSPESDSIQWFHNGNLIPTHTQPSYRFKANNNDSGEYTCQTGQTSLSDPVHLTVLSEWLVLQTPHLEFQEGETIVLRCHSWKDKPLVKVTFFQNGKSKKFSRSDPNFSIPQANHSHSGDYHCTGNIGYTLYSSKPVTITVQAP

Kd [7]: 9.6 nM | EC50 [8]: 6.7 nM
B2: S2B W104A scFv, solitary (scFv, V domains shown)
VH: AVTLDESGGGLQTPGGGLSLVCKASGFTFSSYSMVWVRQAPSKRLEWVAGIYSSATWTYYAPAVKGRATISRDNGQSTVRLQLNDLRAEDTGTYFCAKTSRSGATAYSASAIDAWGHGTEVIV
VL: ALTQPSSVSANPGETVKITCSGGSSYYGWYQQKSPGSAPVTVIYSNDKRPSDIPSRFSGSTSGSTATLTITGVQADDEAVYFCGGYDSNIHGGIFGAGTTLTVL

EC50 [9]: 3.3 nM | Kd [7]: 1 nM
B3: S2B scFv (blocking anti‐6G11 scFv clone 2), solitary (scFv, V domains shown)
VH: B2 VH with A104W
VL: B2 VL

Kd [7]: 4.3 nM | EC50 [8]: 11.2 nM
B4: S2B Y52A scFv, solitary (scFv, V domains shown)
VH: B2 VH with Y52A, A104W
VL: B2 VL

Kd [7]: 0.8 nM | EC50 [8]: 2.7 nM
B5: S2B S164A scFv, solitary (scFv, V domains shown)
VH: B2 VH with A104W
VL: B2 VL with S24A

EC50 [8]: 3.7 nM
B6: S2B R101A scFv, solitary (scFv, V domains shown)
VH: B2 VH with R101A, A104W
VL: B2 VL
